Source: a protein production outcome set (Wang et al. 2014)

Assay: label from the status in PepcDB records

Sequence	protein production
MSLIDFHVHLDLYPDPVAVARACEERQLTVLSVTTTPAAWRGTLALAAGRPHVWTALGFHPEVVSERAADLPWFDRYLPETRFVGEVGLDGSPSLRGTWTQQFAVFQHILRRCEDHGGRILSIHSRRAESEVLNCLEANPRSGTPILHWYSGSVTELRRAISLGCWFSVGPTMVRTQKGAALIRSMPRDRVLTETDGPFLELDGQAALPWDVKSVVEGLSKIWQIPASEVERIVKENVSRLLGTVREGHHHHHH	not failed
MWRDTMSAFLGELIGTALLIVLGGGVCAGVSLKKSFAKDSGWIVITMGWGLAVAVAAYAVGSISGAHLNPALTIGLAFKGAFPWSDVPGYIVAQMIGAIIGAVIVYLHYLPHWKETEDPGTKLGVFATGPAIPNTFANLLSEMIGTFVLVFGILAIGANKFADGLNPFIVGFLIVSIGLSLGGTTGYAINPARDLGPRIAHFFLPIAGKGGSNWKYAWIPVVGPILGGSLAGLFHQVVFEGKQNSALIYVIIATVIVLAISYMTSKKSGSNTNSRKVA	failed
MSITATHDTSSKGRHALPALALLLLMTLSGCAARDMGDGTSPSLMERHATGKSLAPDAPGTPQRQGTPAAEAEAHLQRGLAYLAQDRPELAFEHFSRAASLAPEMVEPRLQRARLLVRRGMPNEAAADIEAVLAASPQHARAWELAGMVAFDRGLLDEAEADFTRAITLDPDLASCYAHLGAVHDYKGRPDLARDVYAAALVRFPQSGELHNNLGVAFSMLGDDASALHHFHEAVVLGASSERSWNNMGLALCRLGRFDEAFEAFRNAGGEAAAHNNLGYFFLVNGDASLAVQHLQRAVELEPRYYVRAAENLKRARLAARFAAGGVPVPAAGPQTGGIAGTPVNKAGVLPPATGKGPGTRTTGAGERVIQ	failed
SNMQLDTLRRIVQEINSSVSLHDSLDIMVNQVADAMKVDVCSIYLLDERNQRYLLMASKGLNPESVGHVSLQLSEGLVGLVGQREEIVNLENASKHERFAYLPETGEEIYNSFLGVPVMYRRKVMGVLVVQNKQPQDFSEAAESFLVTLCAQLSGVIAHAHAVGNIDVFRKPSNGA	not failed
RKEMTAACTPRRRIINLTSVLSLQEEINEQGHEVLREMLHNHSFVGCVNPQWALAQHQTKLYLLNTTKLSEELFYQILIYDFANFGVLRLSEPAPLFDLAMLALDSPESGWTEEDGPKEGLAEYIVEFLKKKAEMLADYFSLEIDEEGNLIGLPLLIDNYVPPLEGLPIFILRLATEVNWDEEKECFESLSKECAMFYSIRKQYISEESTLSGQQSEVPGSIPNSWKWTVEHIVYKALRSHILPPKHFTEDGNILQLANLPDLYKVFERC	failed
MSIVSISYNQEEYIREALDGFAAQRTEFPVEVIIADDASTDATPRIIGEYAARYPQLFRPILRQTNIGVHANFKDVLSAARGEYLALCEGDDYWTDPLKLSKQVKYLDRHPETTVCFHPVRVIYEDGAKDSEFPPLSWRRDLSVDALLARNFIQTNSVVYRRQPSYDDIPANVMPIDWYLHVRHAVGGEIAMLPETMAVYRRHAHGIWHSAYTDRRKFWETRGHGMAATLEAMLDLVHGHREREAIVGEVSAWVLREIGKTPGRQGRALLLKSIADHPRMTMLSLQHRWAQTPWRRFKRRLSTELSSLAALAYATRRRALEGRDGGYRETTSPPTGRGRNVRGSHA	failed
MCPYITRRNDVMNDTFDYIFGYALSTALARYWVNPDGSQGGIVSIDAKIDASVMIGKDAVVFPDANIAERACIAEKVCIGNAVRIGKHAMIDHGASIGDRSNIGERSRIYQDSFIGENAVIAARACIGEKVYIGNFVSLAKDSIIDDGVNIGERSSIGERTRIRQGSFIRKGCVIRQRSVIAKRAYIDEGVYIGNVVRIGEESMIHRRSRIGSGARIGGSVCIGVYCRIDGSVRIGQHADIGEWVNIDGHARIGNFARIGEWSRIGGRANIAAHVVLEKQSIIHSETCIQDASKTSVDMPKDAGI	failed
MGHHHHHHSHMTNTVDSLFDTGLERYKAGEPAADLIPVFKEVCDRAPKASAAWICLAWLYLLEDKPNLALKAAQKAVKINPQDPQARVNLAVAMLETGQKGLRQHIDITQQLMLVNPDWRDEIQNSIADGLSRKPDWQSLAKVKGWLFNE	not failed
MNYVKYHLLALLVTLLVAGSFISSEKLSGVVNPFSLTLLRFVIAAFTLLPFVLFKAQYRKGIIRALPRSLIMSVFFSVFFICMFEALKTTTPLNTGTLYTLVPFLTAIFSIFAFKEKITKKRLVVYLIGSAGTSWIIFGGDIEALLAFSLNGGDALFIGGCISMVCYSISMKFLYRGDEIIVIVFCTLFCGALWMLLALLVFNQPLQWHLLKSDLWFHMGYLALFATLASTFIIQKTTVVLGPSKVMAYIYLNPICVAFLMLFIEGKSIPSIVFPGMIISLIATIVLQFQNRNNANK	failed
MICKLKLLSLPSYSSKPCNFYIHLKCSELPQKIRHPFDRNHLLSLISSPKYQEGRFRCNACGKDGDRLAYHCGDCGIDLHTVCANMPSRVTHQSHPHHQLSLTFSMPPGGPGSAAASSFQCCVCRGLGSNSWLYSCGECSGFDAHL	failed
MEPIMRNPEDALLDSWHQNAQAWIDAVRHGAIESRRQVTDQAILLAILGRQPERVLDLGCGEGWLLRALADRGIEAVGVDGDRTLVDAARAAGAGEVHLASYAQLAEAKVPVGKDYDLICANFALLHQDIIELLSAMRTLLVPGGALVIQTLHPWSVADGDYQDGWREESFAGFAGDWQPMPWYFRTLASWLNALDMAGLRLVSLQEPQHPQSAVPQSLLMVAERH	failed
MNKQFIILYFNIFLVFLGIGLVVPVLPVYLKDLGLKGSDLGILVAVFALAQMIISPFGGTLADKLGKKLIICIGLGLFAISEFLFAASHTFSLLIVSRILGGFSAGMVMPGVTGMIADISVGRDKAKNFGYMSAIINSGFILGPGMGGFLAEFSHRLPFYVAGFSGCVALILSIALIKNPKNSTQDGFTQYQPELLSKINWKVFLTPIILTLVLAFGLSAFETLFPLYTADKAHYSPLDISFAITGGGIAGAIFQVFFFDKFMKHFKELTFITYALLYSAIILLALTFVHSYWSIMIISFIVFIGFDMIRPAITNYFSNIAGNRQGFAGGLNSTFTSMGNFIGPLVAGTLYDINFEFPLYMSVLVMVLGMFVIFIEKMIRSRFSNI	failed
MNRKFTARGPKRIEWAPHSCYHRKAHGFRPGTLSARHRSVRTPRSIVGIRTPHPHPNPTDHDFATMTIRQSALFALALGTLGLLALSGCSAGNPNMSAAEDAMEQERYERALANVDSAIAQDSANAQAYAMKARILRQMADSTAPPEAYKQRYRQARQAEEKAIKFDPGRRSDIKNQRELAFIQEFQKGADAFNRAQQSSQKSDYLRAAAYFGAAGAIRPDSTGPIRNEAFARLQAARLEGGDQGMQEMSNVIPILERYLKKEDEPEKDVYSILSQLYRQGDQPERALEVTERALDDLSSRPTHFRIQGTRGLSYTGTIEAGGTSRQVEGTTPDRIELSTSDGMVTGTFRKQDGGKKQTKGRLQVGLYTQGTQVANSRTTALEEITISEDLSSVTPLAELQNQRLSALNSTGNTEKAMQAYRQQIERNPENARYRYNYGSLLLNSDRYDEAIEQLSEAVKLDSDDPKKQYNLGAAYLNKGVVLQDSLVSVRDSVMAQNRKPTQEEAQMIEDLDEQRLQFFQNAIPPLERARQLSGANGRYRQNACSALLQAYVQTEQTDKAEDVKQCAGAGGNTSGGSGGR	failed
MKNSNRLIYTDNLEESLEETASLFEHHIKFYTEIIEKDKKVIKTFNKDFKIEHAKEVISKAHLKHSELNAFLIAAPSYGIEAQNALLKILEEPPNNVCFIMFAKSQNHVLATIKSRLIKEDKRQKIPLKPLDLDLSKLDLKDIYAFLKNLDKENFDSRENQRERIESLLESVNRHKIPLNEQELQAFDLAIKANSSYYKLSYNLLPLLLSLLSKKKTP	failed
MAEPLQPDPGAAEDAAAQAVETPGWKAPEDAGPQPGSYEIRHYGPAKWVSTSVESMDWDSAIQTGFTKLNSYIQGKNEKEMKIKMTAPVTSYVEPGSGPFSESTITISLYIPSEQQFDPPRPLESDVFIEDRAEMTVFVRSFDGFSSAQKNQEQLLTLASILREDGKVFDEKVYYTAGYNSPVKLLNRNNEVWLIQKNEPTKENE	failed
MNPAPERTVMQHVRPLPYEADFTGFLSNTVAPRWMEALRIQRMRTCFPHFDSGAPQHLCIITETTVRYRKPVRYSDAIVGKAWLQSARYSRWIIAFSFAFEFSGLPAFEGRQAGTFIDPLEHHHHHH	failed
MISVFDIYKIGVGPSSSHTVGPMKAGKEFIDDLRAMGKLRDITKITVDVYGSLSLTGKGHHTDIAIIMGLAGNSPEKVDIDSIPGFIARVEETERLPVGMHCHTVSFPREGGMNFHKTNLELHENGMQIHAWIDDEKVYSKTYYSIGGGFIVDEENFGK	not failed
MRSNHLPCWHTGPLSTLNVRPHLARAWHPLVCIYQRCLATALPTAPAVDSYCISTEIPYYDLVGRLGGKGPSKQTFTMQMLFHKKQRTPLGFCDGLDNVFVGFGSKDEKGCRPPKYHASYAPYYPIHKAASMGDVNTVKSFVERGVFAMEQTDWKYRTALHFACVYGHPEVVTLLVESSCEISPKDIKDATPLIKASQCRQTECLNILLKHGADPNIMDCSDNTALHYAVYNGDIETATKLLEYKANIEAINENKITPLLLALKQNKEKMAEFLIHNGANAKTCDFLGRSSLMYAVRCGSELIIKLLLQRDIDTFKQDVFGWTAKRYAVESKSRVRKLLIDYDEEELRQRCSVPKLSSSSLKELCLDSHYDRNTNISNTGKTREKFSQCTLWEEEHPILPTVKVKDSPRSEAVEKAEARPSKSESNEEDTCTTPTLPTTKVKDPSQSEAVEKAEARPSKSGKLTV	failed
MKIKPPLPTVTRTHARALRKELTDAERALWRCLRSNQLHDFKFRRQHPIPPYIADFCCIDAALIIELDGSQHQASSDQARTRWLQSKGWTVLRFWNNDVLFSLDAVVETIFKMVATPYPHPNPSPGGRGA	failed
MKTQITTRDLVLEFIHALNTENFPAAKKRLNENFTFNGPMGHREGSERYMNDMEKMKFKYVVHKMFEEGNDVCLIYDINMNGKTIAASGLYHLEKGEITSLHVYFDPRPLFEE	not failed
VKSIFEIDIEKLADSGVKGIITDLDNTLVGWDVKEPTKGVKSWFAKAKDLGITVTIVSNNNKSRVSSFSSNLGVDYIFKARKPMGKAFKMAIKKMKIQPRETVVVGDQMLTDVFGGNCNGLYTIMVVPVKRTDGLITKFN	not failed
DIGGITGSFYLNTNALPTNADKIKSLILEVIEQCQIKSDDVVLYGCSKGGTAAVYHGLTNNYKIVAV	failed
KGGVWRNTEDEILKAAVMKYGKNQWSRIASLLHRKSAKQCKARWYEWLDPSIKKTEW	not failed
MTGQVLDGRYRLVERLGSGGMGEVWRGHDERLGRTVAIKLIHPGASVDDEAVALFRREAQVTARLAGHPNIVILYDYGTDGDTVYTVMELVTGCSLSALLRERGRLPVELAVRWGAHVCAGLAAAHAVGVVHRDIKPSNLMVVDADAPDGGTVKLVDFGIAGFHEAALHQRTLPPTGEPFGTPLYVSPEQIQMLPVGAFSDLYSFGAVLFHMLTGQPPFHAAEPMPVLRMHLTEPPPNPAELRPDVPAELAELVLMLLAKDPGQRPDNALWVRDRLLSLSGTSPPASAASPTESASREAQMRRLEQSWVEAERLAAAGQAAAAAQRIGALLGELAAIYGADHPATLEARRRHASLTSRAGDPERAAALFDTLVADLDRIYGHAHPETYAARHHLAAATEQAGRRAEAAVLRSELVDALTAQYGPQAARLLHPRLFYAVDLAEAGDFTGAEKLLRDLAAALEQQLGAHTPALQIVHHYLDAAAAFASETAGAEPPHPNRFRESTRLDGRPPPHPLRQRLTRWLRSTTEL	failed
IRSIWENNGFGLMSSKTMTDFDYWISDFEKIGASQKEAEQLIVKAIEIAIDANARNYNYINAILKDWEQRGFKSVEEREA	not failed
